Reference: patent publication US6222018, “Hypoxia inducible factor-1 and method of use” (The Johns Hopkins University School of Medicine)

Columns and labels:
[1] = target: T1, HIF-1 (HIF-1alpha/HIF-1beta (ARNT) heterodimer), affinity-purified (Homo sapiens, UniProt Q16665;P27540 Q16665:1-826,P27540:2-789); assay: EMSA; competed by unlabeled W18 but not M18; buffer Z-100; conditions: tags: none; from CoCl2-treated HeLa S3 cells or hypoxic Hep3B cells; chain copies: heterodimer (inferred), higher-order form also seen; 5' gatc overhangs
T1 sequence (Q16665 whole entry, chain 1 of 2): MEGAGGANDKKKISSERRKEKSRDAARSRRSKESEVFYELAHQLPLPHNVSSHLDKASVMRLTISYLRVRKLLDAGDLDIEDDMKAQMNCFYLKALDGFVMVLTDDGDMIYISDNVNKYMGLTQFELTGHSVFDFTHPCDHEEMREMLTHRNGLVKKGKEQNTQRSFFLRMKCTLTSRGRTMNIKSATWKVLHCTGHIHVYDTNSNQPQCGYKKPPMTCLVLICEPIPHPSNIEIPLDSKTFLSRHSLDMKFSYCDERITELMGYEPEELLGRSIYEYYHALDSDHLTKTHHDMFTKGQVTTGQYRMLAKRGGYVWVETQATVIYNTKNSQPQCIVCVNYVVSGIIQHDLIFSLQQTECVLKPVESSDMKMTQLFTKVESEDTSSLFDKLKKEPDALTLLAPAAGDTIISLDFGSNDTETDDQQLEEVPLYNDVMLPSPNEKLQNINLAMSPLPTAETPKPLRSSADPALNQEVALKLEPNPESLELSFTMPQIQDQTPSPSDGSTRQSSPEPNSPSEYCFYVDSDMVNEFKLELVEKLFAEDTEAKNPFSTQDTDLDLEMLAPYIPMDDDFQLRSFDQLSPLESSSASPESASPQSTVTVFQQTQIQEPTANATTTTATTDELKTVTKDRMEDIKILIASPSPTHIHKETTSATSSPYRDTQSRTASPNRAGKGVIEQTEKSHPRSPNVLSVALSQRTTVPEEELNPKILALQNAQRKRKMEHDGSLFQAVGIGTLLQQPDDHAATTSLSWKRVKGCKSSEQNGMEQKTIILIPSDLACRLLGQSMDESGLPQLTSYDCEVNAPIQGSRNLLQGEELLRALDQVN
T1 sequence (P27540 2-789, chain 2 of 2): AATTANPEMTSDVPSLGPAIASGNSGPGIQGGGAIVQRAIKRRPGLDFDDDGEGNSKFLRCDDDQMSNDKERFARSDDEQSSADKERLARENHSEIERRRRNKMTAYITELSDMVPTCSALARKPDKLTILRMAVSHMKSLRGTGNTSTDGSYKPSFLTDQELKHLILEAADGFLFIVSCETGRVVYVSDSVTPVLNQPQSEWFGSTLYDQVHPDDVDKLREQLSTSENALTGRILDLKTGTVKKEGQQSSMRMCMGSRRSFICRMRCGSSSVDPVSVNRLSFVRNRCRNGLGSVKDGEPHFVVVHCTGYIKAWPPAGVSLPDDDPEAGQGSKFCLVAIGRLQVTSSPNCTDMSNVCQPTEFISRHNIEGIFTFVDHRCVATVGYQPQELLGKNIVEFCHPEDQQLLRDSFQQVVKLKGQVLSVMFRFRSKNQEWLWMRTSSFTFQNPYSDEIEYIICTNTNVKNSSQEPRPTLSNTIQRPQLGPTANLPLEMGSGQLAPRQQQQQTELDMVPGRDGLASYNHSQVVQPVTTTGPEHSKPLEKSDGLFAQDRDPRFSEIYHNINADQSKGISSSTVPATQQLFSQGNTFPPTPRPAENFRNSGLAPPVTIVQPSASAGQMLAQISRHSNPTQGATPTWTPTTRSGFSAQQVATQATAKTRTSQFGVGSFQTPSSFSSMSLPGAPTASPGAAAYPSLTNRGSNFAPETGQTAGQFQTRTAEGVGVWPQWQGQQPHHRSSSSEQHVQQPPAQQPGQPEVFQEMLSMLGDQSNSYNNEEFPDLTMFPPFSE
Procedure: Nuclear extracts were fractionated by DEAE-Sepharose chromatography, and fractions containing HIF-1 activity were applied to a W18 DNA affinity column. 5 ug of protein were incubated with 0.1 ug of calf thymus DNA for gel shift analysis of crude nuclear extract (Crude NE, lane 1) and HIF-1 active fractions from DEAE-Sepharose columns (DEAE, lane 2). For fractions from the W18 column (lanes 3–13), 1 ul aliquots were incubated with 5 ng of calf thymus DNA. The positions of the two HIF-1 bands, constitutive activity (C), nonspecific activity (NS), and free probe (F) are indicated. FT, flowthrough, 0.25M, 0.5M, 1M, and 2M are fractions eluted with indicated concentration of KCl in buffer Z. Figure 3B: FIG. 3B is an autoradiograph showing sequence-specific DNA binding of the partially purified fractions described in the legend to FIG. 3A. 5 ug aliquots of fractions from the DEAE-Sepharose column were incubated with W18 probe in the presence of no competitor (lane 1), 10-fold (lanes 2 and 5), 50-fold (lanes 3 and 6), or 250-fold (lanes 4 and 7) molar excess of unlabeled W18 (W, lanes 2–4) or M18 (M, lanes 5–7) oligonucleotide.
Since HIF-1 DNA binding activity from hypoxic Hep3B cells and CoCl_2-treated HeLa cells are indistinguishable (Example 1), HeLa S3 cells treated with 125 uM CoCl_2 were used as starting material for the large scale purification of HIF-1. […]

[2] = target: T2, endogenous HIF-1 in hypoxic Hep3B cells (Homo sapiens, UniProt Q16665;P27540 Q16665:1-826,P27540:2-789); assay: cell_activity; pPGK2svcat, two copies, 1% vs 20% O2; conditions: chain copies: heterodimer (inferred); 5' GATC overhang
T2 sequence (Q16665 whole entry, chain 1 of 2): as the sequence (Q16665 whole entry, chain 1 of 2) above
T2 sequence (P27540 2-789, chain 2 of 2): as the sequence (P27540 2-789, chain 2 of 2) above
Procedure: (§1) Plasmids were purified by alkaline lysis and two rounds of cesium chloride density gradient centrifugation. Hep3B cells were transfected by electroporation with a Gene Pulser (Bio-Rad) at 260 V and 960 microfarads. Duplicate electroporations were pooled and split onto two 10 cm tissue culture dishes (Corning) containing 8 ml of media. Cells were allowed to recover for 24 h in a 5% CO_2 95% air incubator at 37° C., the media was replaced, and one set of duplicate plates was removed to a modular incubator chamber, which was flushed with 1% O_2, 5% CO_2, balance N_2, sealed, and placed at 37° C. Cells were harvested 72 h after transfection, and extracts were prepared for CAT and β-galactosidase activity.
(§2) To determine whether these HIF-1 binding sites were of functional importance, transient expression essays were performed using the reporter genes described above. Reporter plasmids were cotransfected into Hep3B cells with pSVβgal, which was included as a control for variation in transfection efficiency. Transfected cells were split among duplicate plates that were cultured in 1 or 20% O_2 for 48 h, CAT and β-galactosidase protein synthesized following transcription of reporter and control plasmids, respectively, were quantitated from cellular extracts. […]
(§3) HIF-1 binding site sequences from glycolytic genes were analyzed in the same assay. […]

[3] = target: T2, endogenous HIF-1 in hypoxic Hep3B cells; assay: cell_activity; psvcatEPO2, two copies, 1% vs 20% O2; one copy 4.9-fold; conditions: chain copies: heterodimer (inferred)
Source text: Oligonucleotides were cloned into the BglII and BamHI sites located 5' and 3' to the transcription unit, respectively. Plasmids pNMHcat and pHcat (Concordet et al. (1991) Nucleic Acids Res. 19:4173–4180), containing human aldolase A gene sequences fused directly to CAT coding sequences, were provided by P. Maire. pSVβgal (Promega) contained bacterial lacZ coding sequences driven by the SV40 early region promoter and enhancer. Plasmids were purified by alkaline lysis and two rounds of cesium chloride density gradient centrifugation. Hep3B cells were transfected by electroporation with a Gene Pulser (Bio-Rad) at 260 V and 960 microfarads. Duplicate electroporations were pooled and split onto two 10 cm tissue culture dishes (Corning) containing 8 ml of media. […]
as §2, with “Reporter plasmids were cotransfected into Hep3B cells with pSVβgal, which was included as a control for variation in transfection efficiency.” left out

[4] = target: T2, endogenous HIF-1 in hypoxic Hep3B cells; assay: cell_activity; pPFKL3svcat, three copies, 1% vs 20% O2; conditions: chain copies: heterodimer (inferred); 5' GATC overhang
Procedure: as §1, §2, §3

[5] = target: T1, HIF-1 (HIF-1alpha/HIF-1beta (ARNT) …); assay: competition; up to 250-fold excess M18 does not compete; HIF-1 flows through M18 column; conditions: tags: none; from CoCl2-treated HeLa S3 cells or hypoxic Hep3B cells; chain copies: heterodimer (inferred), higher-order form also seen; 5' gatc overhangs

B1: W18 (hEPO 3'-FS nt 1-18) (dsDNA)
DNA 1: GATCGCCCTACGTGCTGTCTCA
DNA 2: GATCTGAGACAGCACGTAGGGC
binding result [1]: binds

B2: hPGK1 5'-FS -172/-194 (dsDNA)
DNA 1: GATCGTGAGACGTGCGGCTTCCGTTTG
DNA 2: CAAACGGAAGCCGCACGTCTCACGATC
activity [2]: 5.6 fold induction

B3: hEPO 3'-FS +3065/+3097 (dsDNA)
DNA 1: GCCCTACGTGCTGTCTCACACAGCCTGTCTGA
DNA 2: TCAGACAGGCTGTGTGAGACAGCACGTAGGGC
activity [3]: 17 fold induction

B4: mPFKL IVS-1 +336/+361 (dsDNA)
DNA 1: GATCCCGGGTAGCTGGCGTACGTGCTGCAG
DNA 2: CTGCAGCACGTACGCCAGCTACCCGGGATC
activity [4]: 47 fold induction

B5: M18 (dsDNA)
DNA 1: GATCGCCCTAAAAGCTGTCTCA
DNA 2: GATCTGAGACAGCTTTTAGGGC
binding result [5]: no binding
